Results reported in patent US20200079833A1 (AstraZeneca / MedImmune, published 2020).
Starred links: 1 amine or outer side, 2 acyl side, 3 side chain; linkers in the order of their positions; H or OH if unused. Non-standard residues stand in square brackets, D forms with d. Groups on a side chain read outwards from the residue. Primed or numbered codes have the meaning given here. No end group written: not given here. *: point of attachment. Dodecanoyl(12-OPh(4-COOH)) = O=C(O)c1ccc(OCCCCCCCCCCCC(=O)*)cc1; γGlu = O=C(O)[C@H](CCC(=O)[*:2])N[*:1]; Stearoyl = CCCCCCCCCCCCCCCCCC(=O)*; αMeF = C[C@](N)(Cc1ccccc1)C(=O)O; αMeK = C[C@](N)(CCCCN)C(=O)O; Lauroyl = CCCCCCCCCCCC(=O)*; αMeS = C[C@](N)(CO)C(=O)O; PEG2′ = not defined here; Aib = CC(C)(N)C(=O)O; Ahx = NCCCCCC(=O)O

B1: SEQ ID NO 137 (peptide)
peptide: H[Aib]EGS[αMeF]TSDV[αMeS]S[αMeF]LEGEAAK([γGlu-Dodecanoyl(12-OPh(4-COOH))])E[αMeF]IA[αMeF]VV[αMeK]GG-NH2
modifications: N-terminus assumed
SMILES: CC[C@H](C)[C@H](NC(=O)[C@](C)(Cc1ccccc1)NC(=O)[C@H](CCC(=O)O)NC(=O)[C@H](CCCCNC(=O)CC[C@H](NC(=O)CCCCCCCCCCCOc1ccc(C(=O)O)cc1)C(=O)O)NC(=O)[C@H](C)NC(=O)[C@H](C)NC(=O)[C@H](CCC(=O)O)NC(=O)CNC(=O)[C@H](CCC(=O)O)NC(=O)[C@H](CC(C)C)NC(=O)[C@](C)(Cc1ccccc1)NC(=O)[C@H](CO)NC(=O)[C@](C)(CO)NC(=O)[C@@H](NC(=O)[C@H](CC(=O)O)NC(=O)[C@H](CO)NC(=O)[C@@H](NC(=O)[C@](C)(Cc1ccccc1)NC(=O)[C@H](CO)NC(=O)CNC(=O)[C@H](CCC(=O)O)NC(=O)C(C)(C)NC(=O)[C@@H](N)Cc1c[nH]cn1)[C@@H](C)O)C(C)C)C(=O)N[C@@H](C)C(=O)N[C@@](C)(Cc1ccccc1)C(=O)N[C@H](C(=O)N[C@H](C(=O)N[C@@](C)(CCCCN)C(=O)NCC(=O)NCC(N)=O)C(C)C)C(C)C
B2: SEQ ID NO 140 (peptide)
peptide: H[Aib]EGS[αMeF]TSDV[αMeS]S[αMeF]LEGEAAK([Ahx-Dodecanoyl(12-OPh(4-COOH))])E[αMeF]IA[αMeF]VV[αMeK]GG-NH2
modifications: N-terminus assumed
SMILES: CC[C@H](C)[C@H](NC(=O)[C@](C)(Cc1ccccc1)NC(=O)[C@H](CCC(=O)O)NC(=O)[C@H](CCCCNC(=O)CCCCCNC(=O)CCCCCCCCCCCOc1ccc(C(=O)O)cc1)NC(=O)[C@H](C)NC(=O)[C@H](C)NC(=O)[C@H](CCC(=O)O)NC(=O)CNC(=O)[C@H](CCC(=O)O)NC(=O)[C@H](CC(C)C)NC(=O)[C@](C)(Cc1ccccc1)NC(=O)[C@H](CO)NC(=O)[C@](C)(CO)NC(=O)[C@@H](NC(=O)[C@H](CC(=O)O)NC(=O)[C@H](CO)NC(=O)[C@@H](NC(=O)[C@](C)(Cc1ccccc1)NC(=O)[C@H](CO)NC(=O)CNC(=O)[C@H](CCC(=O)O)NC(=O)C(C)(C)NC(=O)[C@@H](N)Cc1c[nH]cn1)[C@@H](C)O)C(C)C)C(=O)N[C@@H](C)C(=O)N[C@@](C)(Cc1ccccc1)C(=O)N[C@H](C(=O)N[C@H](C(=O)N[C@@](C)(CCCCN)C(=O)NCC(=O)NCC(N)=O)C(C)C)C(C)C
B3: SEQ ID NO 166 (peptide)
peptide: H[Aib]EGS[αMeF]TSDV[αMeS]S[αMeF]LEGEAA[αMeK]E[αMeF]IA[αMeF]VVK([γGlu-γGlu-γGlu-Lauroyl])GG-NH2
modifications: N-terminus assumed
SMILES: CCCCCCCCCCCC(=O)N[C@@H](CCC(=O)N[C@@H](CCC(=O)N[C@@H](CCC(=O)NCCCC[C@H](NC(=O)[C@@H](NC(=O)[C@@H](NC(=O)[C@](C)(Cc1ccccc1)NC(=O)[C@H](C)NC(=O)[C@@H](NC(=O)[C@](C)(Cc1ccccc1)NC(=O)[C@H](CCC(=O)O)NC(=O)[C@](C)(CCCCN)NC(=O)[C@H](C)NC(=O)[C@H](C)NC(=O)[C@H](CCC(=O)O)NC(=O)CNC(=O)[C@H](CCC(=O)O)NC(=O)[C@H](CC(C)C)NC(=O)[C@](C)(Cc1ccccc1)NC(=O)[C@H](CO)NC(=O)[C@](C)(CO)NC(=O)[C@@H](NC(=O)[C@H](CC(=O)O)NC(=O)[C@H](CO)NC(=O)[C@@H](NC(=O)[C@](C)(Cc1ccccc1)NC(=O)[C@H](CO)NC(=O)CNC(=O)[C@H](CCC(=O)O)NC(=O)C(C)(C)NC(=O)[C@@H](N)Cc1c[nH]cn1)[C@@H](C)O)C(C)C)[C@@H](C)CC)C(C)C)C(C)C)C(=O)NCC(=O)NCC(N)=O)C(=O)O)C(=O)O)C(=O)O
B4: SEQ ID NO 141 (peptide)
peptide: H[Aib]EGS[αMeF]TSDV[αMeS]S[αMeF]LEGEAAK([Ahx-Ahx-Dodecanoyl(12-OPh(4-COOH))])E[αMeF]IA[αMeF]VV[αMeK]GG-NH2
modifications: N-terminus assumed
SMILES: CC[C@H](C)[C@H](NC(=O)[C@](C)(Cc1ccccc1)NC(=O)[C@H](CCC(=O)O)NC(=O)[C@H](CCCCNC(=O)CCCCCNC(=O)CCCCCNC(=O)CCCCCCCCCCCOc1ccc(C(=O)O)cc1)NC(=O)[C@H](C)NC(=O)[C@H](C)NC(=O)[C@H](CCC(=O)O)NC(=O)CNC(=O)[C@H](CCC(=O)O)NC(=O)[C@H](CC(C)C)NC(=O)[C@](C)(Cc1ccccc1)NC(=O)[C@H](CO)NC(=O)[C@](C)(CO)NC(=O)[C@@H](NC(=O)[C@H](CC(=O)O)NC(=O)[C@H](CO)NC(=O)[C@@H](NC(=O)[C@](C)(Cc1ccccc1)NC(=O)[C@H](CO)NC(=O)CNC(=O)[C@H](CCC(=O)O)NC(=O)C(C)(C)NC(=O)[C@@H](N)Cc1c[nH]cn1)[C@@H](C)O)C(C)C)C(=O)N[C@@H](C)C(=O)N[C@@](C)(Cc1ccccc1)C(=O)N[C@H](C(=O)N[C@H](C(=O)N[C@@](C)(CCCCN)C(=O)NCC(=O)NCC(N)=O)C(C)C)C(C)C

Target: T1, GLP-1R (INS1e assay) (UniProt P32301 22-463, limits assumed)
T1 sequence (looked up): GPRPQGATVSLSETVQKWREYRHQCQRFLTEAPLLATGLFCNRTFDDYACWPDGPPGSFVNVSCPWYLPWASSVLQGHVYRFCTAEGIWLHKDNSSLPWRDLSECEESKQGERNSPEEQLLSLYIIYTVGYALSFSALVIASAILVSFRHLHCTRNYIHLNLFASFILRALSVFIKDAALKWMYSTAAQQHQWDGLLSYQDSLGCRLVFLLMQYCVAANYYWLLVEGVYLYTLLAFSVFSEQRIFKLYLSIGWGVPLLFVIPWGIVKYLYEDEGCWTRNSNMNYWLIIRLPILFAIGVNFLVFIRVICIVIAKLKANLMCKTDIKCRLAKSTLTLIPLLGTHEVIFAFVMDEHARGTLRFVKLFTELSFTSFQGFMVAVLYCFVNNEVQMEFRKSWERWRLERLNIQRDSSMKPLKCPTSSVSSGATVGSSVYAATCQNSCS
Test: cell-based or functional assay

Going from H[Aib]EGS[αMeF]TSDV[αMeS]S[αMeF]LEGEAAK([PEG2′-PEG2′-PEG2′-Stearoyl])E[αMeF]IA[αMeF]VV[αMeK]GG-NH2 [SEQ ID NO 154] to B1, the “INS1e assay EC50 GLP-1 R n1” value rises from 32.3 pM to 63.7 pM (2-fold).

H[Aib]EGS[αMeF]TSDV[αMeS]S[αMeF]LEGEAAK([PEG2′-PEG2′-Stearoyl])E[αMeF]IA[αMeF]VV[αMeK]GG-NH2 [SEQ ID NO 153] and H[Aib]EGS[αMeF]TSDV[αMeS]S[αMeF]LEGEAAK([PEG2′-Dodecanoyl(12-OPh(4-COOH))])E[αMeF]IA[αMeF]VV[αMeK]GG-NH2 [SEQ ID NO 143] are within 1.5-fold of each other in “INS1e assay EC50 GLP-1 R n1” value: 55 pM for the first, 45.1 pM for the second.

H[Aib]EGS[αMeF]TSDV[αMeS]S[αMeF]LEGEAAK([PEG2′-PEG2′-PEG2′-Lauroyl])E[αMeF]IA[αMeF]VV[αMeK]GG-NH2 [SEQ ID NO 136] and B2 are within 1.5-fold of each other in “INS1e assay EC50 GLP-1 R n1” value: 52.6 pM for the first, 43.2 pM for the second.

Compared with B3, B4 is 5.2-fold lower in “INS1e assay EC50 GLP-1 R n1” value: 233 pM for the first, 44.7 pM for the second.

First: H[Aib]EGS[αMeF]TSDV[αMeS]S[αMeF]LEGEAAK([PEG2′-PEG2′-PEG2′-Stearoyl])E[αMeF]IA[αMeF]VV[αMeK]GG-NH2 [SEQ ID NO 154]
Second: B1
The “INS1e assay EC50 GLP-1 R n2” value of the first is 2.1-fold lower: 17.1 pM for the first, 36.2 pM for the second.

Compared with H[Aib]EGS[αMeF]TSDV[αMeS]S[αMeF]LEGEAAK([PEG2′-PEG2′-Stearoyl])E[αMeF]IA[αMeF]VV[αMeK]GG-NH2 [SEQ ID NO 153], H[Aib]EGS[αMeF]TSDV[αMeS]S[αMeF]LEGEAAK([PEG2′-Dodecanoyl(12-OPh(4-COOH))])E[αMeF]IA[αMeF]VV[αMeK]GG-NH2 [SEQ ID NO 143] is 2.7-fold lower in “INS1e assay EC50 GLP-1 R n2” value: 61.2 pM for the first, 22.7 pM for the second.

H[Aib]EGS[αMeF]TSDV[αMeS]S[αMeF]LEGEAAK([PEG2′-PEG2′-PEG2′-Lauroyl])E[αMeF]IA[αMeF]VV[αMeK]GG-NH2 [SEQ ID NO 136] and B2 are within 1.5-fold of each other in “INS1e assay EC50 GLP-1 R n2” value: 21.5 pM for the first, 16.7 pM for the second.

Going from B3 to B4, the “INS1e assay EC50 GLP-1 R n2” value falls from 687 pM to 36.7 pM (19-fold).

First: H[Aib]EGS[αMeF]TSDV[αMeS]S[αMeF]LEGEAAK([PEG2′-PEG2′-PEG2′-Stearoyl])E[αMeF]IA[αMeF]VV[αMeK]GG-NH2 [SEQ ID NO 154]
Second: B1
The “INS1e assay EC50 Mean pM GLP-1R” value of the first is lower: 25 pM for the first, 50 pM for the second.

Compared with H[Aib]EGS[αMeF]TSDV[αMeS]S[αMeF]LEGEAAK([PEG2′-PEG2′-Stearoyl])E[αMeF]IA[αMeF]VV[αMeK]GG-NH2 [SEQ ID NO 153], H[Aib]EGS[αMeF]TSDV[αMeS]S[αMeF]LEGEAAK([PEG2′-Dodecanoyl(12-OPh(4-COOH))])E[αMeF]IA[αMeF]VV[αMeK]GG-NH2 [SEQ ID NO 143] is lower in “INS1e assay EC50 Mean pM GLP-1R” value: 58 pM for the first, 34 pM for the second.

Compared with H[Aib]EGS[αMeF]TSDV[αMeS]S[αMeF]LEGEAAK([PEG2′-PEG2′-PEG2′-Lauroyl])E[αMeF]IA[αMeF]VV[αMeK]GG-NH2 [SEQ ID NO 136], B2 is lower in “INS1e assay EC50 Mean pM GLP-1R” value: 37 pM for the first, 30 pM for the second.

First: B3
Second: B4
The “INS1e assay EC50 Mean pM GLP-1R” value of the first is higher: 460 pM for the first, 41 pM for the second.
